From PMC7266990

Key:
Conditions in all cases: SPR per cited protocol (Gsaller 2016; buffer not given), CBC 3.13-200 nM, 1:1 model with mass transport; SEC: 20 mM Tris/HCl, 150 mM NaCl, 1 mM DTT, pH 7.5
[1] = target: Afu_CBC HapE P88L (core) P88L (Aspergillus fumigatus) (UniProt Q4WDM9); assay: SPR
[2] = target: Afu_CBC HapE P88L (SPR co-injection construct);HapX bZIP peptide P88L (Aspergillus fumigatus;Aspergillus fumigatus) (UniProt Q4WDM9+Q4WER3); assay: SPR co-injection
[3] = target: An_CBC HapE P88L (Aspergillus nidulans) (UniProt G5EAZ0+Q5B5Z6+Q5AYY8); assay: SPR
[4] = target: An_CBC wt (HapB/HapC/HapE core) (Aspergillus nidulans) (UniProt G5EAZ0+Q5B5Z6+Q5AYY8); assay: SPR

Sequence | Kd [1] [nM] | binding signal (fold half-life vs binary P88L CBC-DNA) [2] | Kd [3] [nM] | Kd [4] [nM]
AAATCCACCAATCAACGCCTCCGTG (double strand) [Afu_cccA 25 bp SPR duplex] | 429 |  |  | 
AAATCCACCAATCAACGCCTCCGTGATTGTCAGCAAT (double strand) [Afu_cccA SPR co-injection duplex (CBC and HapX sites)] |  | 7 |  | 
ACCCGAGCCAATCAGAGCGAAGTGA (double strand) [An_cccA 25 bp SPR duplex] | 2000 |  | 2000 | 
GAATTGACCAATCAGAGGTAGGATG (double strand) [An_cycA 25 bp SPR duplex] | 100 |  | 116 | 0.83
